In patent US20100166746A1 (published 2010):

Target: T1, human EphA2 antigen (human, UniProt P29317 24-534, limits assumed)
T1 construct: also called human EphA2 tumor antigen
Test: kinetic parameters, ratio to G5 reference

T1 sequence (P29317 24-534 limits assumed): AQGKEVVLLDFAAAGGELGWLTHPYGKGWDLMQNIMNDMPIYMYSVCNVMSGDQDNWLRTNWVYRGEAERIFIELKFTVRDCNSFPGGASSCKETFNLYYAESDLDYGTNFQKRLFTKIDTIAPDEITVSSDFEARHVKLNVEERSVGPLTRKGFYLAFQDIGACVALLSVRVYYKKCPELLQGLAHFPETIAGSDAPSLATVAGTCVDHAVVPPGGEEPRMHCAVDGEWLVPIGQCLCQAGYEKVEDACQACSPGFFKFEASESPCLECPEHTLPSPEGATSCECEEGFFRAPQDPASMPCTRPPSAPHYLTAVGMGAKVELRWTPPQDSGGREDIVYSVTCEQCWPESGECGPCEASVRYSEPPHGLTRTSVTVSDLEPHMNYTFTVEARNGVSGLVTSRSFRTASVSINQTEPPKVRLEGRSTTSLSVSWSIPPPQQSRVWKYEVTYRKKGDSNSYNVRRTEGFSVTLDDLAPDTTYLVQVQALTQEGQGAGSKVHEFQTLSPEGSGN

B1: 3F2 anti-EphA2 antibody (antibody, V domains shown)
VH: EVQLVESGGGVVRPGGSLRLSCAASGFTVSDYSMNWVRQAPGKGLEWIGFIRNKANAYTTEYSASVKGRFTISRDDSKNTLYLQMNSLKTEDTAVYYCTTYPRYHAMDSWGQGTMVTVSS
VL: AIQLTQSPSSLSASVGDRVTITCRASQSISNNLHWYLQKPGQSPQLLIYYGFQSISGVPSRFSGSGSGTDFTLTISSLQPEDFATYYCQQANSWPLTFGGGTKLEIK
  fold faster Koff as compared to G5: ~3 fold
  fold faster Kon as compared to G5: ~3.5 fold
